From paper PMC5986797, “Laminin heparin-binding peptides bind to several growth factors and enhance diabetic wound healing” (Nature Communications, 2018)
Values belong to the molecule of their own block, whether it stands above or below them.

Assays:
[1] = test system: VEGF-A121; test: ELISA: VEGF-A121 binding to laminin LG domain / laminin peptide; set-up: species or system human; conditions: 1 µg/mL LG domain coated; 1 μg/mL GF; vs BSA-coated wells; n = 4
Protocol: (§1) ELISA tests were performed as described above. In brief, ELISA plates were coated with 1 μg/mL of laminin alpha 3 LG domain recombinant protein, laminin alpha 4 LG domain recombinant protein (R&D Systems), laminin alpha 5 LG domain recombinant protein (LD BioPharma), or laminin peptide (sequences are described in Supplementary Table 1, chemically synthesized by Genscript) in PBS for 2 h at 37 °C. A concentration of 1 μg/mL of BSA served as non-binding protein control. After blocking with 2% BSA PBS-0.05% Tween 20 (PBS-T) solution, 1 μg/mL of the recombinant human proteins (VEGF-A121, VEGF-A165, PlGF-1, PlGF-2, PDGF-BB, or FGF-2) or 10 μg/mL of biotinylated heparin (Sigma-Aldrich) were added. Bound GF was detected with biotinylated antibodies for human VEGF-A, PlGF, PDGF-BB (R&D Systems, Catalog No. DY220, 1:180 dilution), or FGF-2 (R&D Systems). The antibodies were detected by streptavidin-HRP (R&D Systems).

[2] = test system: PDGF-BB; test: ELISA: PDGF-BB binding to laminin LG domain / laminin peptide; set-up: species or system human; conditions: 1 µg/mL LG domain coated; 1 μg/mL GF; vs BSA-coated wells; n = 4
Protocol: as §1

[3] = test system: FGF-2; test: ELISA: FGF-2 binding to laminin LG domain / laminin peptide; set-up: species or system human; conditions: 1 µg/mL LG domain coated; 1 μg/mL GF; vs BSA-coated wells; n = 4
Protocol: as §1

[4] = test system: PlGF-1; test: ELISA: PlGF-1 binding to laminin LG domain / laminin peptide; set-up: species or system human; conditions: 1 µg/mL LG domain coated; 1 μg/mL GF; vs BSA-coated wells; n = 4
Protocol: as §1

[5] = test system: VEGF-A165; test: ELISA: VEGF-A165 binding to laminin LG domain / laminin peptide; set-up: species or system human; conditions: 1 µg/mL LG domain coated; 1 μg/mL GF; vs BSA-coated wells; n = 4
Protocol: as §1, with “ELISA plates were coated with 1 μg/mL of laminin alpha 3 LG domain” left out

[6] = test system: PlGF-2; test: ELISA: PlGF-2 binding to laminin LG domain / laminin peptide; set-up: species or system human; conditions: 1 µg/mL LG domain coated; 1 μg/mL GF; vs BSA-coated wells; n = 4
Protocol: as §1

[7] = test system: recombinant human laminin isoforms (–111, –211, –332, –411, –421, –511, and –521); test: ELISA: binding of full-length laminin isoforms to absorbed GFs and CXCL chemokines; conditions: 50 nM GF coated, 10 nM laminin; signals greater than 0.1 indicate binding; n = 4
Protocol: Ninety-six-well ELISA plates (med-binding, Greiner Bio-One) were coated with 50 nM GFs in 100 µL/well of phosphate-buffered saline (PBS) at 37 °C for more than 2 h. After blocking with 2% BSA solution containing PBS and 0.05% Tween 20 (PBS-T), 10 nM recombinant human laminin isoforms (–111, –211, –332, –411, –421, –511, and –521) (>95% purity tested by SDS-PAGE, BioLamina) in 100 µL/well PBS were added. Bound laminin was detected with 100 µL/well rabbit anti-human LAMC1 polyclonal antibody (Assay Biotech, Catalog No. C13072, 1:1000 dilution in PBS) or rabbit anti-human LAMA3 polyclonal antibody (Assay Biotech, Catalog No. C13066, 1:1000 dilution in PBS). After incubation with biotinylated anti-rabbit antibody for 60 min at room temperature (RT), HRP-conjugated streptavidin (Jackson ImmunoResearch) was added. After 60 min of incubation at RT, 50 μL of TMB substrate (Sigma-Aldrich) was added. The reactions were stopped by adding 25 μL of 2 N H2SO4. Subsequently, the absorbance at 450 nm was measured with a reference of 570 nm.

B1: LAMA3_2928–3150: recombinant human LAMA3 LG domain Ser2928-Cys3150 (linker domain and LG4 domain), 6 His, HEK-293F (protein)
chain: SLNKPPFLMLLKGSTRFNKTKTFRINQLLQDTPVASPRSVKVWQDACSPLPKTQANHGALQFGDIPTSHLLFKLPQELLKPRSQFAVDMQTTSSRGLVFHTGTKNSFMALYLSKGRLVFALGTDGKKLRIKSKEKCNDGKWHTVVFGHDGEKGRLVVDGLRAREGSLPGNSTISIRAPVYLGSPPSGKPKSLPTNSFVGCLKNFQLDSKPLYTPSSSFGVSSC
modifications: left off: His6, N-terminal, state not stated
notes: recombinant human LAMA3 LG domain Ser2928-Cys3150 (linker domain and LG4 domain), 6 His, HEK-293F
binding to VEGF-A121 (ELISA), recombinant LG domains [1]: did not show any binding
binding to PDGF-BB (ELISA), recombinant LG domains [2]: bound
binding to FGF-2 (ELISA), recombinant LG domains [3]: bound
binding to PlGF-1 (ELISA), recombinant LG domains [4]: did not show any binding
binding to VEGF-A165 (ELISA), recombinant LG domains [5]: bound
binding to PlGF-2 (ELISA), recombinant LG domains [6]: bound

B2: BMP-7: bone morphogenetic protein, PeproTech, produced in eukaryotic cells (protein)
chain: STGSKQRSQNRSKTPKNQEALRMANVAENSSSDQRQACKKHELYVSFRDLGWQDWIIAPEGYAAYYCEGECAFPLNSYMNATNHAIVQTLVHFINPETVPKPCCAPTQLNAISVLYFDDSSNVILKKYRNMVVRACGCH
binding to all tested laminin isoforms (ELISA, A450 nm) [7]: not

B3: FGF-7: fibroblast growth factor, PeproTech (protein)
chain: CNDMTPEQMATNVNCSSPERHTRSYDYMEGGDIRVRRLFCRTQWYLRIDKRGKVKGTQEMKNNYNIMEIRTVAVGIVAIKGVESEFYLAMNKEGKLYAKKECNEDCNFKELILENHYNTYASAKWTHNGGEMFVALNQKGIPVRGKKTKKEQKTAHFLPMAIT
binding to all tested laminin isoforms (ELISA, A450 nm) [7]: bound

B5: FGF-10: fibroblast growth factor, PeproTech (protein)
chain: QALGQDMVSPEATNSSSSSFSSPSSAGRHVRSYNHLQGDVRWRKLFSFTKYFLKIEKNGKVSGTKKENCPYSILEITSVEIGVVAVKAINSNYYLAMNKKGKLYGSKEFNNDCKLKERIEENGYNTYASFNWQHNGRQMYVALNGKGAPRRGQKTRRKNTSAHFLPMVVHS
binding to all tested laminin isoforms (ELISA, A450 nm) [7]: bound

B6: FGF-6: fibroblast growth factor, PeproTech (protein)
chain: SPAGTRANNTLLDSRGWGTLLSRSRAGLAGEIAGVNWESGYLVGIKRQRRLYCNVGIGFHLQVLPDGRISGTHEENPYSLLEISTVERGVVSLFGVRSALFVAMNSKGRLYATPSFQEECKFRETLLPNNYNAYESDLYQGTYIALSKYGRVKRGSKVSPIMTVTHFLPRI
binding to all tested laminin isoforms (ELISA, A450 nm) [7]: did not

B7: BMP-3: bone morphogenetic protein, PeproTech (protein)
chain: QWIEPRNCARRYLKVDFADIGWSEWIISPKSFDAYYCSGACQFPMPKSLKPSNHATIQSIVRAVGVVPGIPEPCCVPEKMSSLSILFFDENKNVVLKVYPNMTVESCACR
binding to all tested laminin isoforms (ELISA, A450 nm) [7]: showed binding

B10: BDNF: brain-derived neurotrophic factor, PeproTech (protein, UniProt P23560 19-247, looked up)
Neurotrophic factor BDNF …: APMKEANIRGQGGLAYPGVRTHGTLESVNGPKAGSRGLTSLADTFEHVIEELLDEDQKVRPNEENNKDADLYTSRVMLSSQVPLEPPLLFLLEEYKNYLDAANMSMRVRRHSDPARRGELSVCDSISEWVTAADKKTAVDMSGGTVTVLEKVPVSKGQLKQYFYETKCNPMGYTKEGCRGIDKRHWNSQCRTTQSYVRALTMDSKKRIGWRFIRIDTSCVCTLTIKRGR
binding to all tested laminin isoforms (ELISA, A450 nm) [7]: strong binding

The remaining lines, values ahead:

binding to all tested laminin isoforms (ELISA, A450 nm) [7]: bound
B4: PDGF-CC: platelet-derived growth factor, PeproTech (protein)
chain: VVDLNLLTEEVRLYSCTPRNFSVSIREELKRTDTIFWPGCLLVKRCGGNCACCLHNCNECQCVPSKVTKKYHEVLQLRPKTGVRGLHKSLTDVALEHHEECDCVCRGSTGG

binding to all tested laminin isoforms (ELISA, A450 nm) [7]: bound
B8: PlGF-2: placental growth factor (PlGF)-2, PeproTech (protein)
chain: LPAVPPQQWALSAGNGSSEVEVVPFQEVWGRSYCRALERLVDVVSEYPSEVEHMFSPSCVSLLRCTGCCGDENLHCVPVETANVTMQLLKIRSGDRPSYVELTFSQHVRCECRPLREKMKPERRRPKGRGKRRREKQRPTDCHLCGDAVPRR

binding to all tested laminin isoforms (ELISA, A450 nm) [7]: did not show binding
B9: PlGF-1: placental growth factor, PeproTech (protein)
chain: LPAVPPQQWALSAGNGSSEVEVVPFQEVWGRSYCRALERLVDVVSEYPSEVEHMFSPSCVSLLRCTGCCGDENLHCVPVETANVTMQLLKIRSGDRPSYVELTFSQHVRCECRPLREKMKPERCGDAVPRR

binding to VEGF-A121 (ELISA), recombinant LG domains [1]: did not show any binding
binding to PDGF-BB (ELISA), recombinant LG domains [2]: bound
binding to FGF-2 (ELISA), recombinant LG domains [3]: bound
binding to PlGF-1 (ELISA), recombinant LG domains [4]: did not show any binding
binding to VEGF-A165 (ELISA), recombinant LG domains [5]: bound
binding to PlGF-2 (ELISA), recombinant LG domains [6]: bound
B11: LAMA4_826–1816: laminin alpha 4 LG domain recombinant protein (R&D Systems) (protein)
chain: RSVASKIQVSMMFDGQSAVEVHSRTSMDDLKAFTSLSLYMKPPVKRPELTETADQFILYLGSKNAKKEYMGLAIKNDNLVYVYNLGTKDVEIPLDSKPVSSWPAYFSIVKIERVGKHGKVFLTVPSLSSTAEEKFIKKGEFSGDDSLLDLDPEDTVFYVGGVPSNFKLPTSLNLPGFVGCLELATLNNDVISLYNFKHIYNMDPSTSVPCARDKLAFTQSRAASYFFDGSGYAVVRDITRRGKFGQVTRFDIEVRTPADNGLILLMVNGSMFFRLEMRNGYLHVFYDFGFSGGPVHLEDTLKKAQINDAKYHEISIIYHNDKKMILVVDRRHVKSMDNEKMKIPFTDIYIGGAPPEILQSRALRAHLPLDINFRGCMKGFQFQKKDFNLLEQTETLGVGYGCPEDSLISRRAYFNGQSFIASIQKISFFDGFEGGFNFRTLQPNGLLFYYASGSDVFSISLDNGTVIMDVKGIKVQSVDKQYNDGLSHFVISSVSPTRYELIVDKSRVGSKNPTKGKIEQTQASEKKFYFGGSPISAQYANFTGCISNAYFTRVDRDVEVEDFQRYTEKVHTSLYECPIESSPLFLLHKKGKNLSKPKASQNKKGGKSKDAPSWDPVALKLPERNTPRNSHCHLSNSPRAIEHAYQYGGTANSRQEFEHLKGDFGAKSQFSIRLRTRSSHGMIFYVSDQEENDFMTLFLAHGRLVYMFNVGHKKLKIRSQEKYNDGLWHDVIFIRERSSGRLVIDGLRVLEESLPPTEATWKIKGPIYLGGVAPGKAVKNVQINSIYSFSGCLSNLQLNGASITSASQTFSVTPCFEGPMETGTYFSTEGGYVVLDESFNIGLKFEIAFEVRPRSSSGTLVHGHSVNGEYLNVHMKNGQVIVKVNNGIRDFSTSVTPKQSLCDGRWHRITVIRDSNVVQLDVDSEVNHVVGPLNPKPIDHREPVFVGGVPESLLTPRLAPSKPFTGCIRHFVIDGHPVSFSKAALVSGAVS
